Article PMC6904456

B1: TBA29 (biotin-TBA29 thrombin aptamer) (ssDNA)
DNA: AGTCCGTGGTAGGGCAGGTTGGGGTGACT
modifications: 5' BiotinTEG
B2: non specific aptamer sequence (ssDNA)
DNA: CACCAATATTTACGTTCTACTCTCCAATA
modifications: 5' BiotinTEG

Key:
Thrombin (THR) [1] = target: T1, Thrombin (THR) (UniProt P00734;P00734 328-363;364-622); test: SPR (D-shaped plastic optical fibre, Langmuir fit); 10 uM aptamer for immobilization; Langmuir K, printed as K [nM]; Immobilization in 10 mM phosphate, 138 mM NaCl, 2.7 mM KCl, pH 7.4; sensing in binding buffer (composition and temperature not given in material)
Thrombin (THR) [2] = target: T1, Thrombin (THR); test: SPR (D-shaped plastic optical fibre); 1-50 nM thrombin, no shift of resonance wavelength; Immobilization in 10 mM phosphate, 138 mM NaCl, 2.7 mM KCl, pH 7.4; sensing in binding buffer (composition and temperature not given in material)

Binder	Kd (Thrombin (THR) [1]) [nM]	binding result (Thrombin (THR) [2])
B1	21.8	
B2		no binding
